Square brackets hold non-standard residues; d marks the D form. Ends that are not written are not given here. Michael acceptor = not defined here
Tests used:
[1] = target: human cathepsin S wild-type, amino acids 17 to 331, C-terminal His-tag (CTSS-His) (human, UniProt P25774 115-331); test: cell-based or functional assay
[2] = target: purified cathepsin B (CTSB), purchased from RndSystems (UniProt P07858 80-333); test: cell-based or functional assay

Chain of human cathepsin S wild-type, amino acids 17 to 331, C-terminal His-tag (CTSS-His) (P25774 115-331 limits assumed, form in doubt): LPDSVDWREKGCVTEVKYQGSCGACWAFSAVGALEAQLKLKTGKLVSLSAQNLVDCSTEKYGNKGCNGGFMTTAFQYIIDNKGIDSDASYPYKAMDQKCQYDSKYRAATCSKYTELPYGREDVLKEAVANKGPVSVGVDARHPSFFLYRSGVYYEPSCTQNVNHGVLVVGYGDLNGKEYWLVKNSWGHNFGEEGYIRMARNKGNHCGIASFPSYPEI

IC50, CTSS activity, FRET assay dose-response [1]	IC50, CTSB activity, FRET assay dose-response [2]	Binder
86600 nM	61.9 nM	KRRY[Michael acceptor]WMW (not fully specified; reading uncertain) [Non-natural peptide inhibitor D5, KRRY(Y)WMW]
49.3 nM	–	KHRM[Michael acceptor]VMW (not fully specified; reading uncertain) [Non-natural peptide inhibitor C10, KHRM(Y)VMW]
